Data published in the supplement of paper PMC10126150.
± gives the standard deviation of the averaged measurements.

test system: ATP; test: switch fluorescence ratio, 500 uM ATP over buffer (Cy3 cluster intensity, sum of 5 cycles each) (fold (ratio)); higher = stronger signal-on switching upon ATP binding; sequences stand for … in TCGTCGGCAGCGTCAGATGTGTATAAGAGACAGTTTTTTTTTTTTTTTTTTTTTTTTT…TC; settings: aptamer strand: ATP DNA aptamer (quencher-CACCTGGGGGAGTATTGCGGAGGAAGG + anchor), 100 nM annealed; ATP concentration: 500 uM
In short: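 Switching-strand clusters labelled with Cy3 on a modified Illumina MiSeq flow-cell were annealed to 100 nM quencher-labelled ATP aptamer, imaged in selection buffer, and re-imaged after 15 min with 500 uM ATP at 22 °C. This was done over five cycles with NaOH stripping and re-annealing in between. The fluorescence ratio is summed target-cycle over summed buffer-cycle Cy3 intensity per cluster, averaged per switch-domain sequence, excluding clusters outside 100-1000 RFU.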
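Also: ATP exposure 15 min at 22 °C before imaging.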

Sequence | switch fluorescence ratio
TTATTGGAGA | 0.996 ± 0.015
TGTTAGATAG | 1 ± 0.025
TTTCGCAACG | 1.09 ± 0.047
TTTGGTGCCG | 1.17 ± 0.23
TTGAAGCAGC | 1.45 ± 0.2
ACAGCTAGTA | 0.986 ± 0.019
GAACTAACCA | 1.09 ± 0.02
CAGTGTGTAT | 0.989 ± 0.013
ATTCCTAGGT | 1.33 ± 0.45
GAGTTTAGTC | 1.01 ± 0.013
GCTTGCTATG | 0.976 ± 0.014
CGTCTCTTAG | 0.995 ± 0.027
TATTTCTGTA | 1.03 ± 0.019
ATGGGGGTA | 1.004 ± 0.002
TTGCCGGGAG | 1.02 ± 0.066
AGGGAGCCGG | 0.965 ± 0.03
TTACTCTGGG | 1.003 ± 0.0032
GCGCGTGAGC | 1.061 ± 0.0011
AAAGAGTGTG | 0.988 ± 0.037
TAAACGTCGA | 0.962 ± 0.065
TCCCGGGGGA | 2 ± 1.2
ATCTTTCCTG | 1.053 ± 0.0087

Sequence | switch fluorescence ratio
GCTTATGTTC | 1.015 ± 0.0097
GGAGATTGAT | 1 ± 0.021
CACGGAAGGA | 1.065 ± 0.0079
GCGCATATTG | 1.051 ± 0.0021
GGGTAATCTT | 0.991 ± 0.028
TAGTTGAGAA | 0.9851 ± 0.0075
TTCTAGCCTT | 1.043 ± 0.00045
AGGCAGGGGG | 1.03 ± 0.021
TAATTTTAGT | 1.0092 ± 0.00027
ACGTGCAGTG | 0.9525 ± 0.0085
GATCACTGTT | 0.996 ± 0.062
TGTTTTTTCG | 0.992 ± 0.024
TAGAATAGGT | 0.978 ± 0.011
GGAAGAGGAA | 0.988 ± 0.025
TGGTATGGTA | 0.9969 ± 0.0099
AGGGAAGCGG | 0.982 ± 0.047
TTTGTTGGGT | 1 ± 0.022
CTGGGGACGT | 0.9821 ± 0.0081
TTTTTCCCCA | 1.05 ± 0.042
GGCACCTGGG | 1.02 ± 0.016
CAGGCTTGG | 0.994 ± 0.011
GACATGGCTT | 0.975 ± 0.011

Sequence | switch fluorescence ratio
AGGTCTGGGC | 0.978 ± 0.074
TCTGAAATGG | 1.04 ± 0.047
CGATCTGCTC | 1.06 ± 0.025
CATATTGGTC | 1 ± 0.062
GACTATGGGA | 1.42 ± 0.55
GCGGCCGGGG | 0.999 ± 0.024
TGAAAAGGTA | 1 ± 0.013
GCACCCCGCC | 1.33 ± 0.036
TTGTTGAGTC | 1 ± 0.032
TTGAGTTGGT | 0.95 ± 0.025
AAGCGGTCCG | 1.02 ± 0.025
GGGCTCTTGC | 0.98 ± 0.068
TGCAAGGGTT | 1.12 ± 0.088
GGTGTCGGTC | 0.956 ± 0.049
TCGTGGGAGC | 1.014 ± 0.0089
ACGCTTTATG | 1.03 ± 0.04
CGTTTGTGAT | 0.9993 ± 0.0076
GAGAGTGTGT | 0.982 ± 0.011
AAAAAGGGCA | 0.995 ± 0.061
CTGTAATTAT | 1 ± 0.011
TAAGGATGTA | 1 ± 0.033
CATATTGCTT | 0.993 ± 0.028

Sequence | switch fluorescence ratio
GTTGTCCGGG | 1 ± 0.027
ATATTTATTT | 1.015 ± 0.009
TAAAAGTAGT | 1.03 ± 0.041
TTATTATTGT | 0.982 ± 0.037
TAGATTTGAT | 0.9664 ± 0.0028
ACCTTGTGCA | 1.02 ± 0.04
TTTACGGATT | 1.02 ± 0.048
GGGCCTGGTC | 1.02 ± 0.032
CTGTAATCGT | 0.9595 ± 0.0086
GTGTTGAGGT | 0.984 ± 0.022
GTTACTATTT | 1.01 ± 0.019
CTAAATTTC | 1.02 ± 0.08
TGCAATAATA | 1.06 ± 0.091
GGTGTTCGCA | 1.02 ± 0.014
GGGGGTACTA | 0.96 ± 0.019
TTTTTGGGCA | 0.99 ± 0.013
CGTTTGGAAT | 1.03 ± 0.051
ATTTCTAATT | 1.07 ± 0.15
CTTTTACATA | 1.03 ± 0.018
